Results from PMC9365698 (2022).
One block for each binder: values may come before it.

What was measured:
Test in all cases: SPR
PI16 = molecular target: T1, PI16 (Homo sapiens)
T1 chain: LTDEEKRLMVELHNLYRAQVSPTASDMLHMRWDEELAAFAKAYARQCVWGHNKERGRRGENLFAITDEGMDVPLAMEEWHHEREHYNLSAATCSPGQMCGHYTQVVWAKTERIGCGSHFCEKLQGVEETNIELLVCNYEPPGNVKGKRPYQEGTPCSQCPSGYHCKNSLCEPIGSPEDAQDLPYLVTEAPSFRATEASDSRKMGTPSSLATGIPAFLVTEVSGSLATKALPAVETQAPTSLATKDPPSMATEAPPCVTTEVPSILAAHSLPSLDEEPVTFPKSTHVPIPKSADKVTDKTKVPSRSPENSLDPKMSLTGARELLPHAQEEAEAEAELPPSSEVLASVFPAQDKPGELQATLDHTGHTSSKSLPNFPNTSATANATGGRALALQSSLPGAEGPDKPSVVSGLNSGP

SPR = molecular target: the molecule itself
JAG1 = JAG1 (human, UniProt P78504 34-1067, biotin on the biotin-acceptor site (enzymatic, co-transfected BirA))
PVR = molecular target: T2, PVR (human, UniProt P15151 21-343, biotin on the biotin-acceptor site (enzymatic, co-transfected BirA))
T2 chain: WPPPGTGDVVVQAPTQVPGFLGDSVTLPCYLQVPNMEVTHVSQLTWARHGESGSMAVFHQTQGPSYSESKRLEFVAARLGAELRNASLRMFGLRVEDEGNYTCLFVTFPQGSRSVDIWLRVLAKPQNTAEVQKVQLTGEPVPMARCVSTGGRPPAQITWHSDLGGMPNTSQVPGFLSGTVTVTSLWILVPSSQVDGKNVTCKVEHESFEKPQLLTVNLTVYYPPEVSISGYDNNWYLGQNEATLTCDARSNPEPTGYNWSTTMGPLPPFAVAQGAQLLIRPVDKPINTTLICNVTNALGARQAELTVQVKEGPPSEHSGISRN

FGFR2 = FGFR2 (Homo sapiens)
CDH2 = molecular target: T3, CDH2 (Homo sapiens)
T3 chain: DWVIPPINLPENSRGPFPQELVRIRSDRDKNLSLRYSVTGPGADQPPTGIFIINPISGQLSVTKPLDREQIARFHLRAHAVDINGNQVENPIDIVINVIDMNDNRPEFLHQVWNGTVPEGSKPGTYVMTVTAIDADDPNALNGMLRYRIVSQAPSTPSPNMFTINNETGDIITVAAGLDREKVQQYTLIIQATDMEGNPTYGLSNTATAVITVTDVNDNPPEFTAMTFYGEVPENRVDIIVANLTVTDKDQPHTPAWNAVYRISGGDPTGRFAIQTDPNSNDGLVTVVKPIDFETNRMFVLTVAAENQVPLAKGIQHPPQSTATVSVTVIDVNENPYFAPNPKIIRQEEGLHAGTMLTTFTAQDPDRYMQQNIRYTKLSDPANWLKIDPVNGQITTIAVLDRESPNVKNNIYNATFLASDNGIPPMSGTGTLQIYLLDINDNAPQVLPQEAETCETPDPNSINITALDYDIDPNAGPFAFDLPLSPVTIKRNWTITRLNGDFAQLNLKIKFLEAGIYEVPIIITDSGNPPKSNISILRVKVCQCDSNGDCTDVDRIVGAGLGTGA

TNR16 = molecular target: T4, TNR16 (Homo sapiens)
T4 chain: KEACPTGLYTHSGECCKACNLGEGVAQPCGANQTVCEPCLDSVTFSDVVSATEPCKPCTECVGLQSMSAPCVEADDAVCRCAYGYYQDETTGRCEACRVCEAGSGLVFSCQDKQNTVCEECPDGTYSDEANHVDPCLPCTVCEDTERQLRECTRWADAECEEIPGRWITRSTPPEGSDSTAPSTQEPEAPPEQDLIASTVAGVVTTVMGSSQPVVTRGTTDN

CNTN1 = molecular target: T5, CNTN1 (human, UniProt Q12860 21-993, biotin on the biotin-acceptor site (enzymatic, co-transfected BirA))
T5 chain: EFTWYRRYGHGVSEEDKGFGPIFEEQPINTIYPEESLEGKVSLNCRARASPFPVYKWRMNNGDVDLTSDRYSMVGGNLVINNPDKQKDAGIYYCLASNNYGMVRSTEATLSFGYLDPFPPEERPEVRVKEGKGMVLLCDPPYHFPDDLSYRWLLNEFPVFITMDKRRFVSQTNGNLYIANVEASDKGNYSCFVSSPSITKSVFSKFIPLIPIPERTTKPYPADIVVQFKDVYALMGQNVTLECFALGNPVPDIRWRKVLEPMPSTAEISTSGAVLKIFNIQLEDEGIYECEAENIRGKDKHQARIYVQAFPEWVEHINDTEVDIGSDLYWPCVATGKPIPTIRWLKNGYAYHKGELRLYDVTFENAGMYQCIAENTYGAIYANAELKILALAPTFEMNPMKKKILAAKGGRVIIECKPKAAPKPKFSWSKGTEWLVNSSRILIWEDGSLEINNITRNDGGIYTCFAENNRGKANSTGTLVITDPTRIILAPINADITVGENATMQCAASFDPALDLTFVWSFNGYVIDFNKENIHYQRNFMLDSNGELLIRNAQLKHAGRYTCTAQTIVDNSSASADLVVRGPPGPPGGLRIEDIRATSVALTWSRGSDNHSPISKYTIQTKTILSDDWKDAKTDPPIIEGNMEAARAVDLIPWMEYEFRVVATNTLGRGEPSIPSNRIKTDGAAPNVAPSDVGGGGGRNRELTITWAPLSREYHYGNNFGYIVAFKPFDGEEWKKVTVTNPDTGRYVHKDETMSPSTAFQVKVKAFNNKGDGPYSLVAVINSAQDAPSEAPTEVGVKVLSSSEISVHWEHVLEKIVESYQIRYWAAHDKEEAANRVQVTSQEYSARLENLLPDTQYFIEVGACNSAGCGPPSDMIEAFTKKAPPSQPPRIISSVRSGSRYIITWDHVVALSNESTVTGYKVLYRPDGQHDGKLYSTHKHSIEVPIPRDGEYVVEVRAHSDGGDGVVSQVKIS

- koff (PI16): ~2 s⁻¹
B1: TNR21 (protein)
chain: QPEQKASNLIGTYRHVDRATGQVLTCDKCPAGTYVSEHCTNTSLRVCSSCPVGTFTRHENGIEKCHDCSQPCPWPMIEKLPCAALTDRECTCPPGMFQSNATCAPHTVCPVGWGVRKKGTETEDVRCKQCARGTFSDVPSSVMKCKAYTDCLSQNLVVIKPGTKETDNVCGTLPSFSSSTSPSPGTAIFPRPEHMETHEVPSSTYVPKGMNSTESNSSASVRPKVLSSIQEGTVPDNTSSARGKEDVNKTLPNLQVVNHQQGPHHRHILKLLPSMEATGGEKSSTPIKGPKRGHPRQNLHKHFDINEH

B2: MPZL1 (protein)
chain: SALEVYTPKEIFVANGTQGKLTCKFKSTSTTGGLTSVSWSFQPEGADTTVSFFHYSQGQVYLGNYPPFKDRISWAGDLDKKDASINIENMQFIHNGTYICDVKNPPDIVVQPGHIRLYVVEKENLPV
- koff (SPR): ~0.6 s⁻¹

- koff (JAG1): ~0.1 s⁻¹
B3: VASN (receptor)
chain: CPSGCQCSQPQTVFCTARQGTTVPRDVPPDTVGLYVFENGITMLDAGSFAGLPGLQLLDLSQNQIASLPSGVFQPLANLSNLDLTANRLHEITNETFRGLRRLERLYLGKNRIRHIQPGAFDTLDRLLELKLQDNELRALPPLRLPRLLLLDLSHNSLLALEPGILDTANVEALRLAGLGLQQLDEGLFSRLRNLHDLDVSDNQLERVPPVIRGLRGLTRLRLAGNTRIAQLRPEDLAGLAALQELDVSNLSLQALPGDLSGLFPRLRLLAAARNPFNCVCPLSWFGPWVRESHVTLASPEETRCHFPPKNAGRLLLELDYADFGCPATTTTATVPTTRPVVREPTALSSSLAPTWLSPTEPATEAPSPPSTAPPTVGPVPQPQDCPPSTCLNGGTCHLGTRHHLACLCPEGFTGLYCESQMGQGTRPSPTPVTPRPPRSLTLGIEPVSPTSLRVGLQRYLQGSSVQLRSLRLTYRNLSGPDKRLVTLRLPASLAEYTVTQLRPNATYSVCVMPLGPGRVPEGEEACGEAHTPPAVHSNHAPVTQAREGNLP
modifications: biotin on the biotin-acceptor site (enzymatic, co-transfected BirA)

- koff (PVR): ~0.9 s⁻¹
B4: KIR2DL5A (receptor)
chain: HEGGQDKPLLSAWPSAVVPRGGHVTLLCRSRLGFTIFSLYKEDGVPVPELYNKIFWKSILMGPVTPAHAGTYRCRGSHPRSPIEWSAPSNPLVIVVTGLFGKPSLSAQPGPTVRTGENVTLSCSSRSSFDMYHLSREGRAHEPRLPAVPSVNGTFQADFPLGPATHGGTYTCFGSLHDSPYEWSDPSDPLLVSVTGNSSSSSSSPTEPSSKTGIRRH
modifications: biotin on the biotin-acceptor site (enzymatic, co-transfected BirA)

- koff (FGFR2): ~0.01 s⁻¹
B5: FCER2 (protein)
chain: DTTQSLKQLEERAARNVSQVSKNLESHHGDQMAQKSQSTQISQELEELRAEQQRLKSQDLELSWNLNGLQADLSSFKSQELNERNEASDLLERLREEVTKLRMELQVSSGFVCNTCPEKWINFQRKCYYFGKGTKQWVHARYACDDMEGQLVSIHSPEEQDFLTKHASHTGSWIGLRNLDLKGEFIWVDGSHVDYSNWAPGEPTSRSQGEDCVMMRGSGRWNDAFCDRKLGAWVCDRLATCTPPASEGSAESMGPDSRPDPDGRLPTPSAPLHS

- koff (CDH2): ~0.6 s⁻¹
B6: FCER2 (protein)
chain: B5 chain
modifications: propeptide assumed removed

- koff (TNR16): ~1.4 s⁻¹
B7: CD80 (protein)
chain: VIHVTKEVKEVATLSCGHNVSVEELAQTRIYWQKEKKMVLTMMSGDMNIWPEYKNRTIFDITNNLSIVILALRPSDEGTYECVVLKYEKDAFKREHLAEVTLSVKADFPTPSISDFEIPTSNIRRIICSTSGGFPEPHLSWLENGEELNAINTTVSQDPETELYAVSSKLDFNMTTNHSFMCLIKYGHLRVNQTFNWNTTKQEHFPDN

- koff (CNTN1): ~0.7 s⁻¹
B8: NRCAM (protein)
chain: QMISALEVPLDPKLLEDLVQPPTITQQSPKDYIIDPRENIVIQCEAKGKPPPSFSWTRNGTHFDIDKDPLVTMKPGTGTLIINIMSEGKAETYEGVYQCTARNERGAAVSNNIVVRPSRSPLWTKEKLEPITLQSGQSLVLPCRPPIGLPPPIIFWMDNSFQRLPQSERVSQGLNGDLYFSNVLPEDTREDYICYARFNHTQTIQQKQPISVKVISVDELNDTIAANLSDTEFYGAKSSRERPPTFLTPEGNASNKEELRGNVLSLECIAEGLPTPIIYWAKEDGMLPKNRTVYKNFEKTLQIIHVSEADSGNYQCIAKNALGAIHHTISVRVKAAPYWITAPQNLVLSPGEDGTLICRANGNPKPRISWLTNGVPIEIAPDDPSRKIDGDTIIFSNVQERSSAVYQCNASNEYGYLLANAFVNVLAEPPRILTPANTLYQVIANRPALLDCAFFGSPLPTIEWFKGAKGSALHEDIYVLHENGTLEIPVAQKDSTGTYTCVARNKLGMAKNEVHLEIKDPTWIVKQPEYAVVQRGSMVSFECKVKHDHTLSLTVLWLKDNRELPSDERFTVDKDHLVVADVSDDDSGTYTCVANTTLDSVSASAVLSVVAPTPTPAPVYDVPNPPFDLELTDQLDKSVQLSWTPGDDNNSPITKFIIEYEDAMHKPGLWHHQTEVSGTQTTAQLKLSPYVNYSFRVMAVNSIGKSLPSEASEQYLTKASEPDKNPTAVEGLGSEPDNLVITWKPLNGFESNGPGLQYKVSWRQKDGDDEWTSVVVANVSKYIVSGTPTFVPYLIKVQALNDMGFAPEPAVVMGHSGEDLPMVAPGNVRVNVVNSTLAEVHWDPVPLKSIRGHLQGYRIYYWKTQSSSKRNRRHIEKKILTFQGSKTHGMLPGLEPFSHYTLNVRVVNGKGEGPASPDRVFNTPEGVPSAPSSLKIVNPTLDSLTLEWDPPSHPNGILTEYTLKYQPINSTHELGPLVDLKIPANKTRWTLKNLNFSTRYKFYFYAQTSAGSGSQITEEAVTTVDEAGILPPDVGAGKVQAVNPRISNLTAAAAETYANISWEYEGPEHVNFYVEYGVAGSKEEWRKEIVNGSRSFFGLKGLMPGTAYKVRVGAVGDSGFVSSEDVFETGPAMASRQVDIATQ
